How the values were obtained:
[1] = biological target: Peptide ligand: GluN2B (TAMRA-NNG-…); assay: fluorescence polarisation
[2] = biological target: Peptide ligand: Stargazin (TAMRA-NNG-…); assay: fluorescence polarisation

Substance	Kd [1] [µM]	Kd [2] [µM]
PSD-95 PDZ1-2 6xHis (domain or fragment)	1.9	
PSD-95 PDZ1 6xHis (domain or fragment)	12.4	27.3
